Key:
[1] = biological target: T1, ヒトGITR(glucocorticoid-induced tumor necrosis factor receptor-family related gene) (human, UniProt Q9Y5U5 26-241); assay: cell ELISA and flow cytometry of hybridoma supernatant on 293T/GITR cells
T1 construct: whole, on cells; also called TNFRSF18
T1 sequence (looked up): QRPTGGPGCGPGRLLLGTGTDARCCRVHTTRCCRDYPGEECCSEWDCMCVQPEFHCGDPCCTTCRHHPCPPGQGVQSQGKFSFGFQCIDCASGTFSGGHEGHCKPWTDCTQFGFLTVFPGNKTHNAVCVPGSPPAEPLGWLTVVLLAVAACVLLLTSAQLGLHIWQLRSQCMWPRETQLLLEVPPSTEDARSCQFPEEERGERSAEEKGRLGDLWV

[2] = biological target: T2, GITR断片(アミノ酸翻訳部分N末端1-72番目)−HIDE1の膜貫通領域−mycタグ (human, UniProt Q9Y5U5 26-72); assay: immunoprecipitation from 293T lysate, Western blot with HRP-labelled anti-myc antibody
T2 construct: domain: 膜貫通領域; also called N末端1-72番目のGITR断片; not shown: HIDE1 transmembrane region; myc tag
T2 chain: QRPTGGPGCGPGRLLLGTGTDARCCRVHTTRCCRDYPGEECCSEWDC

[3] = biological target: T3, GITR断片(アミノ酸翻訳部分N末端1-65番目)−HIDE1の膜貫通領域−mycタグ (human, UniProt Q9Y5U5 26-65); assay: as above
T3 construct: domain: 膜貫通領域; Includes the signal peptide as encoded; no cleavage site stated; also called N末端1-65番目のGITR断片; not shown: HIDE1 transmembrane region; myc tag
T3 chain: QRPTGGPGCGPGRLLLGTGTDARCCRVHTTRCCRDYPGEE

[4] = biological target: T4, GITR断片(アミノ酸翻訳部分N末端1-60番目)−HIDE1の膜貫通領域−mycタグ (human); assay: as above
T4 construct: domain: 膜貫通領域; Includes the signal peptide as encoded; no cleavage site stated; also called GITRの1-180塩基長; N末端1-60番目のGITR断片; not shown: HIDE1 transmembrane region; myc tag
T4 chain: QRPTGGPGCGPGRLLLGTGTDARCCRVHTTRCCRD

- binding result [2]: binds
- binding result [3]: binds
- binding result [4]: binds
B1: 抗ヒトGITRモノクローナル抗体(40-44抗体) (antibody, V domains shown)
VH: QVQLQQSGAELVRPGTSVKVSCKASGYAFSNYLIEWVKQRPGQGLEWIGVINPGSGSTNYNEKFKGKATLTADKSSSTAYMQLSSLTSDDSAVYFCARRTYYYGSNYYAMDYWGQGTSVTVSS
VL: DIQMNQSPSSLSSSLGDTITITCHASQNINVWLSWYQQKPGNIPKLLIYKASNLHTGVPSRFSGSGSGTGFTLTISSLQPEDIATYYCQQGQSYPFTFGSGTKLEIK
notes: Mouse (Balb/c) hybridoma monoclonal antibody; mouse IgG2A and mouse IgG1 were used as controls in different experiments; also called 抗ヒトGITR抗体
- binding result [1]: binds
